For two substances, stoichiometry N results are on record in paper PMC11238991.

Assay [1] addresses cleaved-αA (human αA-crystallin made as his-SUMO fusion, tag removed by ulp-1) (human) (UniProt P02489). In words: SEC; analytical; 2.0 mg/mL of each variant on Superose 6 Increase in 20 mM Tris-HCl pH 7.8, 150 mM NaCl, 0.25 mL/min; molar mass from protein standards, number of subunits predicted from it; three experiments.
The target in assay [2] is recombinant human αA-crystallin (αA) (human) (UniProt P02489). The assay is described as above.

Chain of recombinant human αA-crystallin (αA) (P02489 whole entry): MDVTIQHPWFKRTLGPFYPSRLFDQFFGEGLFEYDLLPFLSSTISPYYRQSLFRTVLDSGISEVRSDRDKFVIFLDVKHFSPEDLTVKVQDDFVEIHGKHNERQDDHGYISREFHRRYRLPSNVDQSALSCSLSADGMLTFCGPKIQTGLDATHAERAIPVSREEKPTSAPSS
Chain of cleaved-αA (human αA-crystallin made as his-SUMO fusion, tag removed by ulp-1) (P02489 whole entry, the tested form may be a part): as the sequence (P02489 whole entry) above

Take “cleaved-αA (human αA-crystallin made as his-SUMO fusion, tag removed by ulp-1) (from UniProt P02489 1-173) (natural protein)”: the stoichiometry N – broadly, the number of molecules, sites or subunits per partner or assembly – in assay [1] is 13 to 22 subunits.
Consider “recombinant human αA-crystallin (αA) (from UniProt P02489 1-173) (natural protein)”, for which, in assay [2], the stoichiometry N was 27 to 32 subunits.
